Tested on: K4 kissing-loop RNA reporter
Assay: apparent KD of K4 kissing-loop reporter; higher = weaker reporter binding
Conditions: Eterna round: R107
Description: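 RNA-MaP round R107: designed RNA switches with theophylline, tryptophan, arginine or FMN aptamers are transcribed on-chip within common flanks. They are titrated with a labelled K4 kissing-loop RNA reporter in RNA-MaP buffer (100 mM Tris pH 7.5, 80 mM KCl, 4 mM MgCl2), without ligand or with the indicated ligand. Median apparent KD per design.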

[1] = input ligand: theophylline 20 uM
[2] = input ligand: tryptophan 2.4 mM
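Also: bound reporter read as fluorescence of individual clusters on recovered sequencing chips by microscopy, with normalized cluster intensities fitted with a binding model.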

Row | Sequence | apparent KD of K4 kissing-loop reporter (input ligand: FMN 200 uM) | apparent KD of K4 kissing-loop reporter (input ligand: arginine 13.2 mM) | apparent KD of K4 kissing-loop reporter (input ligand: none) | apparent KD of K4 kissing-loop reporter [1] | apparent KD of K4 kissing-loop reporter [2]
1 | UGAUACCAGACUGAUACCAGCCAGUGAUGUUGGCUAAGCCGAAGAGGUGUCAAAGACACCGGCCCUUGGCAGCAGUCUGGUAUCU [#06 K4 Theophylline B Exclusion] | 132 nM | 117 nM | 114 nM | 117 nM | 117 nM
2 | GUUCUCGAAACUCAGUGAUGUUGAGUUGCAGAGGAUAUCCGCACAUGGAGAAGGCUGCAGUAAUUUAAAGACUCAGCGGCGCUCC [Riare] | 112 nM | 117 nM | 115 nM | 120 nM | 115 nM
3 | CGAGUGAUGUUCGUUCGUUUAUUUCGGUGACAGGAUAUGCGGAAACGCAGAAGGGUCACCUUUGGGUUACCGGAAUUAACGUUAU [Ex FMN A 30] | 640 nM | 455 nM | 561 nM | 414 nM | 584 nM
4 | GCUAUGGUAGGAAGGAGCGCUUACUCGGUAAUAAGAGUGAUGUUCGAUACCGAGUAUUUAUAGCAGGUAGGUCGCCUACUAUAGC [Arginine B K4 5] | 238 nM | 209 nM | 195 nM | 253 nM | 227 nM
5 | AGUACGGACGCGGCCGCCACUCAGAAGAAGACGGUAGUGAUGUUACUGAUGGUGAGAACAAUAAAGAGGACCGGGUGUCGUGCAA [#06 K4 Tryptophan B Same State] | 324 nM | 464 nM | 523 nM | 370 nM | 304 nM
6 | ACGUAGUACGUAGGAUAUCAGAGAUCAGUUAGUGAGAUCGAGUGAUGUUCGAUCAUGUGUUCAUUUUGAGAAGGAUGUAGUAGGA [KL-SSFMN-B6] | 302 nM | 302 nM | 366 nM | 358 nM | 228 nM
7 | CCAAGGUGCUUCUGUUCAGUGAUGUUGGUACGAGGACCGGUACGGCCGCCACUCGCCGUACAAUCGCUAGUUAAUCAUUGGCAAG [theeternabot_exclusion_KL_Trp_A_40] | 667 nM | 408 nM | 660 nM | 441 nM | 256 nM
8 | UACUUUAAUUUAUAACUAUCUUUAUUUUGUCAGGAUAUCGUAUUGUCGAGAAGGGACUCUCUCAAGUGAUGUUUGAGAAAUCGUU [JR_SSFMNA_Sub024] | 84.8 nM | 125 nM | 115 nM | 133 nM | 87.9 nM
9 | UGGAUAUAGUGAUGUUAUAUAGAGAUGGAUACCAGCGAAGAGAAUUGCCCUUGGCAGCCGAAAGCAGUAUCAUUAGAGAAGAAUG [#19 K4 Theophylline A Exclusion] | 291 nM | 252 nM | 271 nM | 251 nM | 255 nM
10 | AAAAGAAAGUCGGCCGCCACUCAACGCAGUGAUGUUGCAAGACAGAAGAGCAGUGAUGUUGCCCAGAGGACCGGGACACAAGGCC [Same State Typtophan B GF 3] | 352 nM | 384 nM | 444 nM | 401 nM | 309 nM
11 | AAAAGCCAGCAAGGAUAUACGCGCGAAGCAUCCAUGGUGCCAGUUCCAGUGAUGUUGGACCACAUCGUAGAAGGUGCGCGGCUCA [theeternabot_sameState_KL_FMN_B_33] | 440 nM | 223 nM | 266 nM | 224 nM | 274 nM
12 | UUUGGUAUCUCGGCCGCCACUCGUGGGAAAUGGGCCUCAGGGAUAUAGUGAUGUUAUGUAAAGAAGAGGACCGGGAGAAGGAAGG [ExTryptoB.Dk] | 343 nM | 232 nM | 355 nM | 481 nM | 208 nM
13 | AAGUCAUAGGCAGGAUAUGCUUAGUAAUAAGGCCAUAUAUACGUAUAGAGUGAUGUUUUGUACCAGGCAGAAGGGCUACAUCAGU [FMN B Excl V8 (+2A)] | 541 nM | 276 nM | 373 nM | 532 nM | 544 nM
14 | UUAAUAAUUCAAGGAUAUGUUUUCUAUUUCGAGUGAUGUUCGGUAUUAAUAAAUUUAAUAGAUUAUACAGAAGGUGAUGGAUAGU [Cynwulf-mod#5] | 108 nM | 101 nM | 84.2 nM | 99.1 nM | 65.8 nM
15 | UUAAAAUAUAUAAAUAAUAAGGGAAUUGAUACCAGACAGAAUUCUGUCCCUUGGCAGCAGUGAUGUUGUUGCAAUUUAAAUAAUU [AK1 Exc Theophylline A] | 104 nM | 148 nM | 112 nM | 136 nM | 85.7 nM
16 | AAAUUCUUUUUUUUAUUUAACUUUUCAGAAGGAGCGUGGUAGUACACAGGUAGGUCGCUGAAUAUAAGACUAGUGAUGUUAGUUA [JR_SSArginiA_Sub009] | 172 nM | 190 nM | 235 nM | 215 nM | 165 nM
17 | GCCGUAGAUUGAAGGAGCGUGGAACUAUGGCUUGAACAGUGAUGUUGUUUAUCUAGGUAGCCGCAGGUAGGUCGCAAUCUACGGC | 263 nM | 250 nM | 270 nM | 239 nM | 229 nM
18 | CCUUCUCUUGAUAGUGAUGUUGUCAAGGGCAAGGAUAUCAUCUUAAUGAGAAGGUGUCCUUGAUAACAUGGAGGUCUGAAACAGA [Omei KL FMN A Exc C v7] | 123 nM | 305 nM | 301 nM | 380 nM | 375 nM
19 | AAGUCAUAUAGAAGGAGCGUGUUUUAUAAUUUAUUUUCAUGAUCGAGUGAUGUUCGAUAUACACAGGUAGGUCGCUGUAUAAUAA [hbob_SS_Arginine_B_2t140] | 114 nM | 144 nM | 129 nM | 133 nM | 101 nM
20 | GCAGGACGAGGAGGAGGAUGAAUUACUGAAGGAGCGCAUAUUUUUGCAGGUAGGUCGCGGUAAACAAGUAUAGUGAUGUUAUAUC [SSArgA.N] | 445 nM | 234 nM | 372 nM | 459 nM | 442 nM
21 | UGCAGUGAUGUUGCUAUUUUUCUUGAUUAACGAGGACCGGUACGGCCGCCACUCGAUUUCUCUCUAGUCCAGUAUGUUGUUUGAU [whbob_EX_Tryp_A_t5] | 96.2 nM | 124 nM | 99.8 nM | 125 nM | 82.9 nM
22 | AGAGUUAUGCGAGGAUAUGCAGUUAGUACUCAAAGAGUACUAACGCAGAGUGAUGUUCUGUGAAAAGCAGAAGGUGCAUAACUCA [Omei KL FMN B SS B v6] | 155 nM | 650 nM | 693 nM | 597 nM | 669 nM

Row | Sequence | apparent KD of K4 kissing-loop reporter (input ligand: FMN 200 uM) | apparent KD of K4 kissing-loop reporter (input ligand: arginine 13.2 mM) | apparent KD of K4 kissing-loop reporter (input ligand: none) | apparent KD of K4 kissing-loop reporter [1] | apparent KD of K4 kissing-loop reporter [2]
23 | AACCACUCGUUACAUCACUAUCGAGUGGAACGAGGACCGGUACGGCCGCCACUCGAUAACUUGCAGUGAUGUUGCAAGUAAGAAU [(T)''-(K)'-(T)'-(T1)-(T2)-(K1)-(K2)_Design9] | 542 nM | 343 nM | 472 nM | 381 nM | 289 nM
24 | UAACUUGCAGUGAUGUUGCAAGAACUGGAUACCAGCAUGGAAACAUGCCCUUGGCAGCCAGAAGCUGGCUGAACAUCACGUCAGU [Design5] | 227 nM | 140 nM | 308 nM | 159 nM | 217 nM
25 | GAUGAACUAUUCGAUACCAGACUACAUGAGUGAUGUUCAUGUGUGUCAAUGUCUAUGUCAGUCCCUUGGCAGCGAAUAGUUUAUC [KL-XTheo-B27] | 146 nM | 108 nM | 125 nM | 141 nM | 125 nM
26 | UGUAAGCGCGUAGAUACCAGCAGACGAGUGAUGUUCAAAAGAUUAAGGAAAAGAAAGUAAUGCCCUUGGCAGCUAAUCAUAAGCG [whbob_Ex_Theo_B_sa92] | 243 nM | 460 nM | 466 nM | 517 nM | 295 nM
27 | AAUAAAAUCACGGCCGCCACUGAUUUCCAUAUUAGGAGUGAUGUUCCUAUGACUAUAUAAUUUAACAGGACCGGGUGAAUAUUUA [JR_ExcTryptoB_Sub012] | 110 nM | 112 nM | 108 nM | 111 nM | 93.5 nM
28 | UACAGGGAUAGUGAUGUUAUCCCAUGUGAUACCAGUGUCAUCCAACACCCUUGGCAGCAUACGGGCAGUGAUGUUGUUCUUGGUA [#17 K4 Theophylline A Exclusion] | 91.7 nM | 75.4 nM | 91.6 nM | 77.5 nM | 84.3 nM
29 | GCCGUAGAUUGAAGGAGCGCUAGUAGUGAUGUUGCUUGCACUUCUUGUGUAAGAAGAACCUAGCAGGUAGGUCGCAAUCUACGGC | 700 nM | 270 nM | 728 nM | 703 nM | 499 nM
30 | AAUCGAGUGAUGUUCGAUGUAGUGCAUUCAGAGGAUAUAGGAUGGGCUAGAAGGCUGAAAAGUGCUUCGAGUGAUGUUCGAAGAU [Exclusion FMN A GF 4] | 47.1 nM | 49 nM | 76.7 nM | 49.7 nM | 56 nM
31 | AAAUUUAAUAUAUUUAAUUAAUUAAGUGAUACCAGACAUUAAUAAGUCCCUUGGCAGCGCAAUGCAGUGAUGUUGCUUAUAAUAA [#18 K4 Theophylline A Same State] | 56.1 nM | 82.9 nM | 50.1 nM | 136 nM | 48 nM
32 | UGACAUUGCUCAGAUACCAGACAUGAGCAUCAGCCAUGUGCCAAACGUACAAUAAUAAAUGUCCCUUGGCAGCUGAGCAAUGUCU [TheoBX 14] | 74.2 nM | 33.1 nM | 53.1 nM | 100 nM | 44.8 nM
33 | CUACAUGCACAGGAGUGAUGUUUAUGGGCUCGAGGACCGGUACGGCCGCCACUCGUUAUGGCACGCAGUAGAUAUAGGCGAGGAA [theeternabot_sameState_KL_Trp_A_41] | 615 nM | 381 nM | 605 nM | 448 nM | 871 nM
34 | AAUUUAUUAACUGAUACCAGACUUUAGCGUGUUUAUAAGUCAAGUGAUGUUUGACUAUUAGUCCCUUGGCAGCAGUAUUUAUUAA [JR_SSTheophyB_Sub022] | 149 nM | 131 nM | 134 nM | 114 nM | 120 nM
35 | AGGCACGAGCAAGGAUAUCGAGUAGAGUGAUGUUCUGCCUGGGUUGGCUCGAAAGAGCCUUCUCAGCGAGAAGGUGCUCGUGCCU [#2 Same State - FMN A Attempt #21 (HarryS)] | 248 nM | 604 nM | 982 nM | 638 nM | 751 nM
36 | AGAACUGUCUUGGAUACCAGUGAUGUUGGUAUCGAUGUGUGAGUGCAAAGCGUCCCACAUCGCCCUUGGCAGCUAAGACUGUUCA [Omei KL Theo B Exc A v4] | 287 nM | 238 nM | 302 nM | 349 nM | 257 nM
37 | UUCAUCGUGGUUCACGGGUGGUAUGAAACGCGAGGACCGGUACGGCCGCCACUCGGUUCCGCUUGUUGAGUGAUGUUCAAUAUUU | 239 nM | 333 nM | 290 nM | 323 nM | 257 nM
38 | AAGAAGAAUGGAAGGAGCGAGCAGAUAUAACCAGUGAUGUUGGAAAGCCUUAUUGCUUAAGCUCAGGUAGGUCGCCAAGAAAAGA [whbob_Ex_Arginine_B_2t151] | 162 nM | 153 nM | 172 nM | 193 nM | 212 nM
39 | AAAAUAAAUCAGUGAUGUUGGUAUCCGGAUACCAGCGAUAAUCAUCGCCCUUGGCAGCCGCGGACGUACAAAAUAAGUACGUCCU [MatMod 15 - Jieux - Same State - Theophylline A] | 282 nM | 89.2 nM | 218 nM | 240 nM | 131 nM
40 | CACUUACGUAGUGAUGUUACGAUCUCUGAUACCAGACAACUCUAAGUCCCUUGGCAGCAGUCAUUUUGCUUCAAAUUUACUCAAA [JR_ExcTheophyA_Sub013] | 691 nM | 577 nM | 706 nM | 661 nM | 520 nM
41 | GGUUUAUAGGAGGAUACCAGUACGAAUAAAGUACAUUAAUAGUAGAGUGAUGUUCUAAAGUACCCUUGGCAGCUUAGAUUAAGUU [ExTheophylB.H] | 102 nM | 180 nM | 116 nM | 166 nM | 77.9 nM
42 | AAGCAGUCACUCGACGCCAUCGAAGAUGGGCGAGGACCGGUACGGCCGCCACUCGGAGUGAUGUUCUGAAGACUGCAAAAUAAAA [MatMod 7 - Jieux - Exclusion - Tryptophan A] | 235 nM | 166 nM | 153 nM | 115 nM | 160 nM
43 | UCGCAAAAGUCGGCCGCCACUCCGGGCCCUAUAAAUGGGCGCAGUGAUGUUGCGGCUAGGCCUCUGAGGACCGGGACUUUGUAGC [Tixelequ] | 221 nM | 119 nM | 58.9 nM | 142 nM | 156 nM
